Where no end group is shown, it is not given here.
T1: Recombinant SIG-10 Fc-fusion protein (R&D Systems) (human, UniProt Q96LC7 17-546, limits assumed)
T1 construct: Bought from R&D Systems; Held on the plate by protein A; not shown: Fc part of the bought fusion protein
T1 sequence (looked up): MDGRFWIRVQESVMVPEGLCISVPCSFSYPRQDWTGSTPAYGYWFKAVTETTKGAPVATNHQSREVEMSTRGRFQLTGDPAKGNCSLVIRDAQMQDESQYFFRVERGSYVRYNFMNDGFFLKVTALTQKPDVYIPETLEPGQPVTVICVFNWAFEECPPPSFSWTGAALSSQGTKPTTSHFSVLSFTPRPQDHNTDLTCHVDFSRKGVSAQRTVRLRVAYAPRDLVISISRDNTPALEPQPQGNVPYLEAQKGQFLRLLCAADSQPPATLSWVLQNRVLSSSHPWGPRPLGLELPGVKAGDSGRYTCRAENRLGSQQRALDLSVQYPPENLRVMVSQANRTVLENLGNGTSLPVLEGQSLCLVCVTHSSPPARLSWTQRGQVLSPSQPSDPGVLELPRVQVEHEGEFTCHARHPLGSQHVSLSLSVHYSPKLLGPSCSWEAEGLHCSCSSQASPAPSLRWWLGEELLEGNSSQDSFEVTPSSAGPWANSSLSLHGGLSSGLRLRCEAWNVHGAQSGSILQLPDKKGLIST


Tests used:
[1] = target: T1, Recombinant SIG-10 Fc-fusion protein …; assay: ELISA: SIGLEC-Fc captured on a protein A plate (500 ng/well), biotinylated cluster fragment at 4 µg/mL, streptavidin-HRP, A492, single concentration
[2] = target: T2, Seq11 (recombinant vWF fragment AA 1-505 of SEQ ID NO: 1 with C-terminal Strep-Tag, from HEK 293) (human, UniProt P04275 764-1268, four O-glycosylation sites 485, 492, 493, 500 occupied (core 1, core 2 and/or extended core 1, sialylated)); assay: SIGLEC ELISA, Scatchard analysis of the binding curve (apparent KD)
T2 construct: Expressed in HEK293 / MEXi-293 cells, purified on Strep-Tactin; not shown: C-terminal Twin-Strep-tag of the pDSG vector (IBA)

[3] = target: T2, Seq11 (recombinant vWF fragment AA …); assay: SIGLEC ELISA with Scatchard analysis (GraphPad Prism); no unit beside the number, concentration axis in µM [panel SIGLEC 9]
[4] = target: T3, vWF C-terminal fragment (V8 protease digest of plasma derived vWF) (human, UniProt P04275 2129-2813, biotinylated with EZ-Link Sulfo-NHS-Biotin); assay: ELISA: SIGLEC-Fc captured on a protein A plate (500 ng/well), biotinylated vWF fragment at 1 µg/mL, streptavidin-HRP, A492, single concentration
T3 construct: the real molecule is only its C-terminal part; also called C-terminal vWF fragment

[5] = target: T2, Seq11 (recombinant vWF fragment AA …); assay: SIGLEC ELISA with Scatchard analysis (GraphPad Prism); no unit beside the number, concentration axis in µM [panel SIGLEC 5]
[6] = target: T2, Seq11 (recombinant vWF fragment AA …); assay: SIGLEC ELISA with Scatchard analysis (GraphPad Prism); no unit beside the number, concentration axis in µM [panel SIGLEC 7]
[7] = target: T4, full length plasmatic VWF (Wilate, Octapharma) (human, UniProt P04275 764-2813); assay: SPR (Biacore 3000): VWF immobilised on a CM5 chip by amine coupling, FVIII injected 0.2-45 nM; mean of five measurements
T4 construct: multimer
T4 sequence (P04275 764-2813 limits assumed): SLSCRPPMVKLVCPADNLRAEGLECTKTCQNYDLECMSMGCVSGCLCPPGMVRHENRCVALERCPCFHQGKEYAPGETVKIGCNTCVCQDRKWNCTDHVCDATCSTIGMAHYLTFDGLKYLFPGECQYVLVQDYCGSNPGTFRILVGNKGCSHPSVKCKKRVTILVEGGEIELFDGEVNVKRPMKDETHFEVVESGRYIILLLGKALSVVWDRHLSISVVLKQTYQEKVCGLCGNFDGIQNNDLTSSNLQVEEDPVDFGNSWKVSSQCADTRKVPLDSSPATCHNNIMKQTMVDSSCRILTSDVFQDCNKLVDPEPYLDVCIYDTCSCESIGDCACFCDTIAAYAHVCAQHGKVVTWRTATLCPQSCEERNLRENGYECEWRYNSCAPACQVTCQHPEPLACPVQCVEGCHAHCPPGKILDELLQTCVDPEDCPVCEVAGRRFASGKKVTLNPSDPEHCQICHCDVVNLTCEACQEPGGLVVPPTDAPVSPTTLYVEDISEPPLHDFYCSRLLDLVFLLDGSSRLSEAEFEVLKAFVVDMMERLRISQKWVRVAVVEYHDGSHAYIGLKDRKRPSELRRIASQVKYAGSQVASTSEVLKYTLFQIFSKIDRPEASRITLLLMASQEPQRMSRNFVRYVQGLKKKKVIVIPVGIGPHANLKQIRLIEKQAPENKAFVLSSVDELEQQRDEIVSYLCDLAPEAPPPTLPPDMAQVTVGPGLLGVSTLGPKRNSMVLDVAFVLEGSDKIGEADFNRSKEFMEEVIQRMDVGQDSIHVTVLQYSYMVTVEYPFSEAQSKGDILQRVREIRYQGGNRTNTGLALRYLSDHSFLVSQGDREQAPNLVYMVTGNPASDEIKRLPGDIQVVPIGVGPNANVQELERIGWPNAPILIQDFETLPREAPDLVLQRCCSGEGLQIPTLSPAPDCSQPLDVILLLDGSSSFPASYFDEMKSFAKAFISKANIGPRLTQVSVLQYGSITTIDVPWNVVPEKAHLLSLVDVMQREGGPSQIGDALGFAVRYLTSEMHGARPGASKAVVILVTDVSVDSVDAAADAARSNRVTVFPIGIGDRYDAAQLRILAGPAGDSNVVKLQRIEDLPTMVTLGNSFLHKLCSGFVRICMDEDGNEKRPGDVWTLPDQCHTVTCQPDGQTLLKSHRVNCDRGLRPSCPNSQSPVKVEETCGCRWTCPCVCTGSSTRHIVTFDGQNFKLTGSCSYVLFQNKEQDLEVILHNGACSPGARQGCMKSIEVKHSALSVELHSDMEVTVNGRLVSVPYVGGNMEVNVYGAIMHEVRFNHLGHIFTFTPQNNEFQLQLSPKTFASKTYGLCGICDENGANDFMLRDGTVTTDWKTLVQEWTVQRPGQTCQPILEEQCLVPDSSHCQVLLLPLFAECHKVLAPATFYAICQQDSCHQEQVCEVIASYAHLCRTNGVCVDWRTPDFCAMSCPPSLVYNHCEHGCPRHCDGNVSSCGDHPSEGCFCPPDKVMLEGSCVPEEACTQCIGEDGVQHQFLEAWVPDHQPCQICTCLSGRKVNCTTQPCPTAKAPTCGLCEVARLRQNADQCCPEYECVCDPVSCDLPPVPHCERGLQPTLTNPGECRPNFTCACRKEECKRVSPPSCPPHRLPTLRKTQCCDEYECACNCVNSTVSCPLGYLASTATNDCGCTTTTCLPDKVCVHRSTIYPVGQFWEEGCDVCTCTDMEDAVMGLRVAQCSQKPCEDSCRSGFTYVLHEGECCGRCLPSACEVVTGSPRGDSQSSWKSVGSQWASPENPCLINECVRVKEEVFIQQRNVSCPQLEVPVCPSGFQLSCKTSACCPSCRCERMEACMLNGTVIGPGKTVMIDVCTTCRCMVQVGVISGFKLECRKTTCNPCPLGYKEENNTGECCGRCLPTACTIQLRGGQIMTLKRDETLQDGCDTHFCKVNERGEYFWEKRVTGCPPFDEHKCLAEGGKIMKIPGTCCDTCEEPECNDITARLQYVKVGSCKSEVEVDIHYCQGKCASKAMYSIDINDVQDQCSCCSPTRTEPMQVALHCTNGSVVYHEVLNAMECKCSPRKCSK

T2 sequence (P04275 764-1268): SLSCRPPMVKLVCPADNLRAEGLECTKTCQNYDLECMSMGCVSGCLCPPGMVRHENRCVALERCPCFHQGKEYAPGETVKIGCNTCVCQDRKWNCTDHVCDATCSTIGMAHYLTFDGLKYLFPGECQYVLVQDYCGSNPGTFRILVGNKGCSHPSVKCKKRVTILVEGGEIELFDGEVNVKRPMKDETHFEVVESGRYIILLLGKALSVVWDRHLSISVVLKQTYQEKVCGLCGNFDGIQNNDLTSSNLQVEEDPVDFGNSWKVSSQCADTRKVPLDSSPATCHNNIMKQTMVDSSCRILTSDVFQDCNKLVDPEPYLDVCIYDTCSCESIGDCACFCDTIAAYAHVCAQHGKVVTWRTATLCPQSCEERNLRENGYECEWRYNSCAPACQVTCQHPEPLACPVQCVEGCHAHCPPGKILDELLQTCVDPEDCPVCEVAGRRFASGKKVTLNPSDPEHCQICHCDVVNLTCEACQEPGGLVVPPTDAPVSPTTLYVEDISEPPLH
T3 sequence (P04275 2129-2813 limits assumed): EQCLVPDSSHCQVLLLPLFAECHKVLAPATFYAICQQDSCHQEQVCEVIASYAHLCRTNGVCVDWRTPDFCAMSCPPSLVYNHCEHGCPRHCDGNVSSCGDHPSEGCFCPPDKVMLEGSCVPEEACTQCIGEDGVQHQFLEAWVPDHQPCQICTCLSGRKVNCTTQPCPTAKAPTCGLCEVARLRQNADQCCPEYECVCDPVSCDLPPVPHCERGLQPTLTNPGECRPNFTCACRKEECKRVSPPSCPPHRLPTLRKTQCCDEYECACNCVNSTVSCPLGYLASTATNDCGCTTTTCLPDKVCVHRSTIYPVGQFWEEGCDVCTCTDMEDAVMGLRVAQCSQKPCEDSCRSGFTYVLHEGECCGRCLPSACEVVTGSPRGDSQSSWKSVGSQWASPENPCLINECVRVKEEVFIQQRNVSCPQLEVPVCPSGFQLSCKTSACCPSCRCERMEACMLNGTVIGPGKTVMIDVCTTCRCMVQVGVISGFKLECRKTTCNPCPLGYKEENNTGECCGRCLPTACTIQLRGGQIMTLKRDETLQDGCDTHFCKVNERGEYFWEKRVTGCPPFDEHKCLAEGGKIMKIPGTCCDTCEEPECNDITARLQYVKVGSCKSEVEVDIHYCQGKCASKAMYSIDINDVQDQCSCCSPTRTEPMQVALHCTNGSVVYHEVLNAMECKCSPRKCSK

Row | Binder | Kd [2] [nM] | binding result [4] | also measured
1 | Cluster 2 fragment (tryptic glycopeptide of plasma derived vWF, AA 674 to 728/729) (also: natural O-glycans (sialylated core 2), sites not given here, also called Cluster II; O-glycosylation Cluster II) peptide: AFVLSSVDELEQQRDEIVSYLC(Maleimide‑PEG2‑Biotin)DLAPEAPPPTLPPDMAQVTVGPGLLGVSTLGPKR | – | – | binding result [1]: no binding (tested: 4 µg/mL)
2 | Recombinant SIG-5 Fc-fusion protein (R&D Systems) (Fc fusion, Bought from R&D Systems; Held on the plate by protein A; also called SIGLEC 5; not shown: Fc part of the bought fusion protein) EKPVYELQVQKSVTVQEGLCVLVPCSFSYPWRSWYSSPPLYVYWFRDGEIPYYAEVVATNNPDRRVKPETQGRFRLLGDVQKKNCSLSIGDARMEDTGSYFFRVERGRDVKYSYQQNKLNLEVTALIEKPDIHFLEPLESGRPTRLSCSLPGSCEAGPPLTFSWTGNALSPLDPETTRSSELTLTPRPEDHGTNLTCQMKRQGAQVTTERTVQLNVSYAPQTITIFRNGIALEILQNTSYLPVLEGQALRLLCDAPSNPPAHLSWFQGSPALNATPISNTGILELRRVRSAEEGGFTCRAQHPLGFLQIFLNLSVYSLPQLLGPSCSWEAEGLHCRCSFRARPAPSLCWRLEEKPLEGNSSQGSFKVNSSSAGPWANSSLILHGGLSSDLKVSCKAWNIYGSQSGSVLLLQGRSNLGT | 494 | no binding (tested: 1 µg/mL) | Kd [5]: 494 nM
3 | FVIII (Nuwiq, Octapharma) (other, UniProt P00451 20-2351, looked up, Commercial product; also called recombinant FVIII; factor VIII) ATRRYYLGAVELSWDYMQSDLGELPVDARFPPRVPKSFPFNTSVVYKKTLFVEFTDHLFNIAKPRPPWMGLLGPTIQAEVYDTVVITLKNMASHPVSLHAVGVSYWKASEGAEYDDQTSQREKEDDKVFPGGSHTYVWQVLKENGPMASDPLCLTYSYLSHVDLVKDLNSGLIGALLVCREGSLAKEKTQTLHKFILLFAVFDEGKSWHSETKNSLMQDRDAASARAWPKMHTVNGYVNRSLPGLIGCHRKSVYWHVIGMGTTPEVHSIFLEGHTFLVRNHRQASLEISPITFLTAQTLLMDLGQFLLFCHISSHQHDGMEAYVKVDSCPEEPQLRMKNNEEAEDYDDDLTDSEMDVVRFDDDNSPSFIQIRSVAKKHPKTWVHYIAAEEEDWDYAPLVLAPDDRSYKSQYLNNGPQRIGRKYKKVRFMAYTDETFKTREAIQHESGILGPLLYGEVGDTLLIIFKNQASRPYNIYPHGITDVRPLYSRRLPKGVKHLKDFPILPGEIFKYKWTVTVEDGPTKSDPRCLTRYYSSFVNMERDLASGLIGPLLICYKESVDQRGNQIMSDKRNVILFSVFDENRSWYLTENIQRFLPNPAGVQLEDPEFQASNIMHSINGYVFDSLQLSVCLHEVAYWYILSIGAQTDFLSVFFSGYTFKHKMVYEDTLTLFPFSGETVFMSMENPGLWILGCHNSDFRNRGMTALLKVSSCDKNTGDYYEDSYEDISAYLLSKNNAIEPRSFSQNSRHQAYRYRRGEITRTTLQSDQEEIDYDDTISVEMKKEDFDIYDEDENQSPRSFQKKTRHYFIAAVERLWDYGMSSSPHVLRNRAQSGSVPQFKKVVFQEFTDGSFTQPLYRGELNEHLGLLGPYIRAEVEDNIMVTFRNQASRPYSFYSSLISYEEDQRQGAEPRKNFVKPNETKTYFWKVQHHMAPTKDEFDCKAWAYFSDVDLEKDVHSGLIGPLLVCHTNTLNPAHGRQVTVQEFALFFTIFDETKSWYFTENMERNCRAPCNIQMEDPTFKENYRFHAINGYIMDTLPGLVMAQDQRIRWYLLSMGSNENIHSIHFSGHVFTVRKKEEYKMALYNLYPGVFETVEMLPSKAGIWRVECLIGEHLHAGMSTLFLVYSNKCQTPLGMASGHIRDFQITASGQYGQWAPKLARLHYSGSINAWSTKEPFSWIKVDLLAPMIIHGIKTQGARQKFSSLYISQFIIMYSLDGKKWQTYRGNSTGTLMVFFGNVDSSGIKHNIFNPPIIARYIRLHPTHYSIRSTLRMELMGCDLNSCSMPLGMESKAISDAQITASSYFTNMFATWSPSKARLHLQGRSNAWRPQVNNPKEWLQVDFQKTMKVTGVTTQGVKSLLTSMYVKEFLISSSQDGHQWTLFFQNGKVKVFQGNQDSFTPVVNSLDPPLLTRYLRIHPQSWVHQIALRMEVLGCEAQDLY | – | – | Kd [7]: 0.3 nM

More lines, main results first:

Row | Kd [2] [nM] | binding result [4] | Binder | also measured
4 | 591 | no binding (tested: 1 µg/mL) | Recombinant SIG-9 Fc-fusion protein (R&D Systems) (Fc fusion, Bought from R&D Systems; Held on the plate by protein A; also called SIGLEC 9; not shown: Fc part of the bought fusion protein) QTSKLLTMQSSVTVQEGLCVHVPCSFSYPSHGWIYPGPVVHGYWFREGANTDQDAPVATNNPARAVWEETRDRFHLLGDPHTKNCTLSIRDARRSDAGRYFFRMEKGSIKWNYKHHRLSVNVTALTHRPNILIPGTLESGCPQNLTCSVPWACEQGTPPMISWIGTSVSPLDPSTTRSSVLTLIPQPQDHGTSLTCQVTFPGASVTTNKTVHLNVSYPPQNLTMTVFQGDGTVSTVLGNGSSLSLPEGQSLRLVCAVDAVDSNPPARLSLSWRGLTLCPSQPSNPGVLELPWVHLRDAAEFTCRAQNPLGSQQVYLNVSLQSKATSGVTQG | Kd [3]: 591 nM
5 | 371 | no binding (tested: 1 µg/mL) | Recombinant SIG-7 Fc-fusion protein (R&D Systems) (Fc fusion, Bought from R&D Systems; Held on the plate by protein A; also called SIGLEC 7; not shown: Fc part of the bought fusion protein) QKSNRKDYSLTMQSSVTVQEGMCVHVRCSFSYPVDSQTDSDPVHGYWFRAGNDISWKAPVATNNPAWAVQEETRDRFHLLGDPQTKNCTLSIRDARMSDAGRYFFRMEKGNIKWNYKYDQLSVNVTALTHRPNILIPGTLESGCFQNLTCSVPWACEQGTPPMISWMGTSVSPLHPSTTRSSVLTLIPQPQHHGTSLTCQVTLPGAGVTTNRTIQLNVSYPPQNLTVTVFQGEGTASTALGNSSSLSVLEGQSLRLVCAVDSNPPARLSWTWRSLTLYPSQPSNPLVLELQVHLGDEGEFTCRAQNSLGSQHVSLNLSLQQEYTGKMRPVSGVLLGAVG | Kd [6]: 371 nM

From patent US20210275644A1 (OCTAPHARMA, published 2021)
